For the experiment, the target named is pag_bacan pagA (UniProt P13423).

In the case of “Lethal factor (Bacillus anthracis) (from UniProt P15917) D139A”, the “effect of a mutation on the interaction” value is on record as “decreasing interaction”.

Turning to “Lethal factor (Bacillus anthracis) (from UniProt P15917) D169A”, the “effect of a mutation on the interaction” value is listed as “decreasing interaction”.

For the substance “Lethal factor (Bacillus anthracis) (from UniProt P15917) D169K”, the “effect of a mutation on the interaction” value is “decreasing interaction”.

Take “Lethal factor (Bacillus anthracis) (from UniProt P15917) E168A”: the “effect of a mutation on the interaction” value is “decreasing interaction”.

“Lethal factor (Bacillus anthracis) (from UniProt P15917) E168K”: the “effect of a mutation on the interaction” value is “decreasing interaction”.

On to “Lethal factor (Bacillus anthracis) (from UniProt P15917) K176A”, for which the “effect of a mutation on the interaction” value is on record as “decreasing interaction”.

Consider “Lethal factor (Bacillus anthracis) (from UniProt P15917) N173A”, for which the “effect of a mutation on the interaction” value was “decreasing interaction”.

In the case of “Lethal factor (Bacillus anthracis) (from UniProt P15917) Y141K”, the “effect of a mutation on the interaction” value was “decreasing interaction”.

The values are drawn from IntAct's records for PubMed 16293620.
